Measurements taken from patent US20260209363A1 (Chugai, published 2026).

T1: human soluble IL-6R (human, UniProt P08887 20-357, limits assumed)
T1 construct: Soluble form; also called sIL6R; Human IL-6R
T1 sequence (looked up): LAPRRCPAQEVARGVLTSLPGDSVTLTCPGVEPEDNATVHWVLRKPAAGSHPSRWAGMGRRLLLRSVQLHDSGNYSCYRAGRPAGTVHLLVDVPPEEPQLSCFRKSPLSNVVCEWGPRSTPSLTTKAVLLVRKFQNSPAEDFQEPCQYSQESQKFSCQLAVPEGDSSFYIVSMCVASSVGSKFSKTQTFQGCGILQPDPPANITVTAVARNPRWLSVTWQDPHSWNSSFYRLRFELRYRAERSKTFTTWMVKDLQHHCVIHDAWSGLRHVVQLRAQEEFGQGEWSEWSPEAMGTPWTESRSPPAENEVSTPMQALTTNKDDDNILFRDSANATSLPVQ


Key:
human soluble IL-6R [1] = target: T1, human soluble IL-6R; assay: in vivo KD in mouse plasma (albumin present), from total antibody, free and bound sIL6R 5 min after sIL6R; antibody 0.2 mg/kg IV
Procedure: (§1) Next, free sIL6R in plasma was measured. The concentration of free sIL6R in plasma was measured on a fully automated ELISA system (Gyrolab xP workstation). First, sIL6R prepared at 23.4, 46.9, 93.8, 188, 375, 750, and 1500 ng/mL using a Protein-Free (PBS) Blocking Buffer (Thermo Scientific) was used as solutions for preparing the calibration curve. Mouse plasma samples were used in the measurements without diluting them. A solution of biotin-labeled H54 diluted to 10 micro g/mL using a Protein-Free (PBS) Blocking Buffer was used as a solution of the sIL6R-capturing molecule. Alexa Fluor (registered trademark) 647-labeled anti-human IL-6R antibody (R&D Systems) diluted to 1 micro g/mL using a Protein-Free (PBS) Blocking Buffer was used as a solution of the human IL-6R-detection molecule. PBS (pH 7.4) containing 0.05% TWEEN was used as a washing solution. The calibration curve solutions, mouse plasma samples, sIL6R-capturing molecule solution, sIL6R-detection molecule solution, and the washing solution were placed onto a PCR plate, and then the PCR plate was sealed with a plate sealer. After the PCR plate and the Bioaffy 200 disc were placed in the Gyrolab xP workstation, measurements were taken. Using the data processed by the Gyros Evaluater 3.6.2.30 software and the calibration curve concentrations, the concentration of free sIL6R in plasma was calculated by logistic regression using the XLfit 5.5.0.5 software.
Additionally, bound sIL6R in plasma was measured. The concentration of bound sIL6R in plasma was measured on an electrospray ionization mass spectrometer connected to a high-performance liquid chromatography (LC/ESI-MS/MS). First, H54//IC17 and sIL6R were mixed, and solutions for preparing the calibration curve of bound sIL6R were prepared at theoretical plasma concentrations of 0.0468, 0.467, 4.60, and 20.1 nmol/mL. […]

rat albumin = target: T2, rat albumin (rat, UniProt P02770 25-608); assay: inferred from reduced antigen complex in rat plasma (Gyrolab xP)
T2 construct: also called albumin in SD rat plasma
T2 sequence (P02770 25-608 limits assumed): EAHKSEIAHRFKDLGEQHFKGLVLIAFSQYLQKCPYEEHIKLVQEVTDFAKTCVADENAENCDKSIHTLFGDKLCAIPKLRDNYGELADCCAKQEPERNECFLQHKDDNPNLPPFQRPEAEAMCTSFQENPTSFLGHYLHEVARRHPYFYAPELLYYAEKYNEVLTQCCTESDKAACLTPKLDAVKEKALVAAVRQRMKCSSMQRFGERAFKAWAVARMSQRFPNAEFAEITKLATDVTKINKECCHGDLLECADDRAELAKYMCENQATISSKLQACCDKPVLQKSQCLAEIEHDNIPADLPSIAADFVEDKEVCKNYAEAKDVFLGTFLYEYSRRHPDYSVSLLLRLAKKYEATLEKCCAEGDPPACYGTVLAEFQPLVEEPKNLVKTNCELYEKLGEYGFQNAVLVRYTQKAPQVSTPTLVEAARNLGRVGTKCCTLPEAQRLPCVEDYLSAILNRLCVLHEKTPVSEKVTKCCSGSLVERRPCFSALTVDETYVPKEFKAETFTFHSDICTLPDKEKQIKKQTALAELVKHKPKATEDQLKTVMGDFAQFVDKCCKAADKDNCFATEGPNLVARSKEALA

human soluble IL-6R [2] = target: T1, human soluble IL-6R; assay: Gyrolab xP immunoassay of antibody-antigen complex in C57BL/6J mouse plasma (albumin present), 1 nM antibody, 4 nM antigen
mouse albumin = target: T3, mouse albumin (mouse, UniProt P07724 25-608); assay: SPR (Biacore T200), antibody captured by anti-human Fc antibody, mouse albumin as analyte, 25 degrees C
T3 construct: also called recombinant mouse Albumin; mouse serum albumin
Procedure: Binding activities of the produced antibodies against mouse albumin were evaluated using Biacore T200 (Cytiva).
As the running buffer, 50 mM Na Phosphate (pH 7.4), 150 mM NaCl, 0.05% Tween20 was used, and the evaluation was performed at 25 degrees C. First, anti-human Fc antibody (Cytiva) was used as a ligand-capturing molecule. Anti-human Fc antibody (Cytiva) was solid-phased on a Series S Sensor Chip CM4 (Cytiva) using an Amine Coupling Kit (Cytiva). Antibody solution prepared using the running buffer was allowed to interact with this CM4 sensor chip to capture approximately 120 RU of the antibody. Mouse albumin (Bioscience) was diluted to 0 and 300 nM with the running buffer and allowed to bind to the captured antibody. The chip was regenerated using 3 M MgCl₂, and measurements were performed by repeatedly capturing the antibodies. Dissociation constant (KD) of each antibody for mouse albumin was calculated using Biacore T200 Evaluation Software 2.0. Specifically, the association rate constant ka (L/mol/s) and the dissociation rate constant kd (1/s) were calculated by global fitting of the sensorgrams obtained by measurement with the 1:1 Langmuir binding model, and the dissociation constant KD (mol/L) was calculated from these values.

human albumin = target: T4, human albumin (human, UniProt P02768 25-609); assay: inferred from reduced antigen complex in human plasma (Gyrolab xP)
T4 construct: also called albumin in human plasma
T4 sequence (P02768 25-609 limits assumed): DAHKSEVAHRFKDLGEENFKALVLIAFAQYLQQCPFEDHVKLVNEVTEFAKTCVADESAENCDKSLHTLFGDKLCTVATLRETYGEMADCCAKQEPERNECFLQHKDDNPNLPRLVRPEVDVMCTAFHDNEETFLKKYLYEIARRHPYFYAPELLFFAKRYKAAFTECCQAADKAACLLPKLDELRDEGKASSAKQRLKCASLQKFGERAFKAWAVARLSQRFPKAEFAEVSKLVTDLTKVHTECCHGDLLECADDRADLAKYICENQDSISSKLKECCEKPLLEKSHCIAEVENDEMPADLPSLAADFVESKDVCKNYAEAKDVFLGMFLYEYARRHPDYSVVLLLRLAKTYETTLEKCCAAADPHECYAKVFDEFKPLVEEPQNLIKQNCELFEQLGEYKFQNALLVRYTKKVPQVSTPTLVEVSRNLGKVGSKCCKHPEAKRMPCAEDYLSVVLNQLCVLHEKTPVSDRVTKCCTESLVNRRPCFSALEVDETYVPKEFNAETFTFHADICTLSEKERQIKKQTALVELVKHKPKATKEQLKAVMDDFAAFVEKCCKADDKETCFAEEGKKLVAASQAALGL

human soluble IL-6R [3] = target: T1, human soluble IL-6R; assay: SPR (Biacore T200), antibody captured on Protein G, human IL-6R as analyte, 37 degrees C, no albumin
Procedure: Binding activities of the produced albumin switch molecules against human IL-6R were evaluated using Biacore T200 (Cytiva). As the running buffer, 50 mM Na Phosphate (pH 7.4), 150 mM NaCl, 0.05% Tween20 was used, and the evaluation was performed at 37 degrees C. First, Protein G (CALBIOCHEM) was used as a ligand-capturing molecule. Protein G (CALBIOCHEM) was solid-phased on a Series S Sensor Chip CM4 (Cytiva) using an Amine Coupling Kit (Cytiva). Antibody solution prepared using the running buffer was allowed to interact with this CM4 sensor chip to capture approximately 200 RU of the antibody. Human IL-6R used in the present measurement was prepared by an approach described in WO2018097307 (Example 3-2). Human IL-6R was diluted to 0, 100, and 400 nM with the running buffer, and allowed to bind to the captured antibody. The chip was regenerated using 3 M MgCl₂, and measurements were performed by repeatedly capturing the antibodies. Dissociation constant (KD) of each antibody for human IL-6R was calculated using Biacore T200 Evaluation Software 2.0. Specifically, the association rate constant ka (L/mol/s) and the dissociation rate constant kd (1/s) were calculated by global fitting of the sensorgrams obtained by measurement with the 1:1 Langmuir binding model, and the dissociation constant KD (mol/L) was calculated from these values.

human soluble IL-6R [4] = target: T1, human soluble IL-6R; assay: in vivo KD in mouse plasma (albumin present), from total antibody, free and bound sIL6R 5 min after sIL6R; antibody 1 mg/kg IV
Procedure: as §1
Additionally, bound sIL6R in plasma was measured. The concentration of bound sIL6R in plasma was measured on an electrospray ionization mass spectrometer connected to a high-performance liquid chromatography (LC/ESI-MS/MS). First, H54//IC17 and sIL6R were mixed, and solutions for preparing the calibration curve of bound sIL6R were prepared at theoretical plasma concentrations of 0.0468, 0.467, 4.60, and 20.1 nmol/mL. The solutions for preparing the calibration curve and 1 or 2 micro L of a plasma sample were added to 75 or 150 micro g of magnetic beads (Magnosphere MS300/Carboxyl, JSR) to which anti-delta GK antibodies were solid-phased, and this was shaken at 25 degrees C. for one hour.

| Kd (human soluble IL-6R [1]) [nM] | binding result (rat albumin) | decrease in the signal derived from the complex, compared to H54//IC17 (human soluble IL-6R [2]) [%] | Kd (mouse albumin) [nM] | koff (mouse albumin) [s⁻¹] | kon (mouse albumin) [M⁻¹ s⁻¹] | binding result (human albumin) | Kd (human soluble IL-6R [3]) [nM] | koff (human soluble IL-6R [3]) [s⁻¹] | kon (human soluble IL-6R [3]) [M⁻¹ s⁻¹] | Kd (human soluble IL-6R [4]) [nM] | Binder |
| --- | --- | --- | --- | --- | --- | --- | --- | --- | --- | --- | --- |
| 141 | binds | 95 | 19.4 | 0.00112 | 57600 | binds | 3.7 | 0.000779 | 210000 | 306 | ABD094(H/L)-H54//IC17 (bispecific antibody, human IgG1, kappa, also called anti-IL6R albumin switch molecule) heavy 1: LAEAKEAANAELDSYGVSDFYKRLIDKAKTVEGVEALKDAILAALPQVQLQESGPGLVKPSETLSLTCAVSGYSISDDQAWSWVRQPPGEGLEWIGYISYSGITNYNPSLKGRVTISRDTSKNQFSLKLSSVTAADTAAYYCARSLARTTAMDYWGEGTLVTVSSASTKGPSVFPLAPSSKSTSGGTAALGCLVEDYFPEPVTVSWNSGALTSGVHTFPAVLQSSGLYSLSSVVTVPSSSLGTQTYICNVNHKPSNTKVDERVEPKSCDKTHTCPPCPAPELRRGPSVFLFPPKPKDTLMISRTPEVTCVVVDVSHEDPEVKFNWYVDGVEVHNAKTKPREEQYNSTYRVVSVLTVLHQDWLNGKEYKCKVSNKALPAPIEKTISKAKGQPREPQVCTLPPSREEMTKNQVSLSCAVKGFYPSDIAVEWESNGQPENNYKTTPPVLDSDGSFFLVSKLTVDKSRWQQGNVFSCSVMHEALHNHYTQKSLSLSP light 1: LAEAKEAANAELDSYGVSDFYKRLIDKAKTVEGVEALKDAILAALPDIQMTQSPSSLSASVGDSVTITCQASQDISSYLNWYQQKPGKAPELLIYYGSELHSGVPSRFSGSGSGTDFTFTISSLEAEDAATYYCQQGNSLPYTFGQGTKVEIERTVAAPSVFIFPPSDRKLKSGTASVVCLLNNFYPREAKVQWKVDNALQSGNSQESVTEQDSKDSTYSLSSTLTLSKADYEKHKVYACEVTHQGLSSPVTKSFNRGEC heavy 2: not shown light 2: QVQLQQSGPQLVRPGASVKISCKASGYSFTSYWMHWVNQRPGQGLEWIGMIDPSYSETRLNQKFKDKATLTVDKSSSTAYMQLSSPTSEDSAVYYCALYGNYFDYWGQGTTLTVSSASVAAPSVFIFPPSDEQLKSGTASVVCLLNNFYPREAKVQWKVDNALQSGNSQESVTEQDSKDSTYSLSSTLTLSKADYEKHKVYACEVTHQGLSSPVTKSFNRGEC |
| 2 | binds |  | 10.2 | 0.000443 | 43500 | binds | 2.02 | 0.000951 | 471000 | 13.4 | ABP(H/L).N13-H54//IC17 (bispecific antibody, human IgG1, kappa, also called ABP(H/L)-H54//IC17) heavy 1: QRLMEDICLPRWGCLWEDDFGGGSQVQLQESGPGLVKPSETLSLTCAVSGYSISDDQAWSWVRQPPGEGLEWIGYISYSGITNYNPSLKGRVTISRDTSKNQFSLKLSSVTAADTAAYYCARSLARTTAMDYWGEGTLVTVSSASTKGPSVFPLAPSSKSTSGGTAALGCLVEDYFPEPVTVSWNSGALTSGVHTFPAVLQSSGLYSLSSVVTVPSSSLGTQTYICNVNHKPSNTKVDERVEPKSCDKTHTCPPCPAPELRRGPSVFLFPPKPKDTLMISRTPEVTCVVVDVSHEDPEVKFNWYVDGVEVHNAKTKPREEQYNSTYRVVSVLTVLHQDWLNGKEYKCKVSNKALPAPIEKTISKAKGQPREPQVCTLPPSREEMTKNQVSLSCAVKGFYPSDIAVEWESNGQPENNYKTTPPVLDSDGSFFLVSKLTVDKSRWQQGNVFSCSVMHEALHNHYTQKSLSLSP light 1: QRLMEDICLPRWGCLWEDDFGGGSDIQMTQSPSSLSASVGDSVTITCQASQDISSYLNWYQQKPGKAPELLIYYGSELHSGVPSRFSGSGSGTDFTFTISSLEAEDAATYYCQQGNSLPYTFGQGTKVEIERTVAAPSVFIFPPSDRKLKSGTASVVCLLNNFYPREAKVQWKVDNALQSGNSQESVTEQDSKDSTYSLSSTLTLSKADYEKHKVYACEVTHQGLSSPVTKSFNRGEC heavy 2: not shown light 2: QVQLQQSGPQLVRPGASVKISCKASGYSFTSYWMHWVNQRPGQGLEWIGMIDPSYSETRLNQKFKDKATLTVDKSSSTAYMQLSSPTSEDSAVYYCALYGNYFDYWGQGTTLTVSSASVAAPSVFIFPPSDEQLKSGTASVVCLLNNFYPREAKVQWKVDNALQSGNSQESVTEQDSKDSTYSLSSTLTLSKADYEKHKVYACEVTHQGLSSPVTKSFNRGEC |
